Assay results reported in publication PMC8944867.

Target: HOIP UBA-RBR-LDD/HOIL-1L UBL complex (human) (UniProt Q96EP0)
Assay: ITC

HOIP UBA-RBR-LDD/HOIL-1L UBL complex (human), sequence (Q96EP0 whole entry, chain 1 of 2): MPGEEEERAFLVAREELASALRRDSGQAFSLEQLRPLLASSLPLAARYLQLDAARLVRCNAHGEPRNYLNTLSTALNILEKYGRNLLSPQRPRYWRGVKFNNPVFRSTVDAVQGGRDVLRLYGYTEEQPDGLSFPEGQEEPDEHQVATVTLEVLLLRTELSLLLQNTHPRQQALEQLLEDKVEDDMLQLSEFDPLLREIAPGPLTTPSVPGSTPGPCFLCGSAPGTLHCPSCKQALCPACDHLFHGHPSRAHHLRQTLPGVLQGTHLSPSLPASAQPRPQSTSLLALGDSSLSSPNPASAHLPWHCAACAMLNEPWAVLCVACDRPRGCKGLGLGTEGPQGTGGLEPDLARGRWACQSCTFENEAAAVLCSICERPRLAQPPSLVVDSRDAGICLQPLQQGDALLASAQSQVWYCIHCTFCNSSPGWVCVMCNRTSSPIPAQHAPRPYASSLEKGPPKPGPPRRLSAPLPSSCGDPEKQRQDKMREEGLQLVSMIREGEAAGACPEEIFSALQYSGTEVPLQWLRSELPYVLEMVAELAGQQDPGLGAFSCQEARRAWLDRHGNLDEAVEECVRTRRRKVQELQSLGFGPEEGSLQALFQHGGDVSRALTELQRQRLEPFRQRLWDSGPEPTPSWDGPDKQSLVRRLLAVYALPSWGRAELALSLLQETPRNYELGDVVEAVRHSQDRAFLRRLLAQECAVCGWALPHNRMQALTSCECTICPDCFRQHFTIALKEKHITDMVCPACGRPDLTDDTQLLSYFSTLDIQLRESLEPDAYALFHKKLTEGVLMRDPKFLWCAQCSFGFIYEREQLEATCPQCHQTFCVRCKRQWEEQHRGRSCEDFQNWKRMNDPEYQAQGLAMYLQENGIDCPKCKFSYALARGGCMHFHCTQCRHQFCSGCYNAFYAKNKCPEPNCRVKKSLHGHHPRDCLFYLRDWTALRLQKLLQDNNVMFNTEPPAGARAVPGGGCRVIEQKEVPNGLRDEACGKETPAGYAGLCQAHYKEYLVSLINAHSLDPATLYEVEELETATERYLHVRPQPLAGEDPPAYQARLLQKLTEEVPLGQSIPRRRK
HOIP UBA-RBR-LDD/HOIL-1L UBL complex (human), sequence (Q9BYM8 53-135, chain 2 of 2, further chain): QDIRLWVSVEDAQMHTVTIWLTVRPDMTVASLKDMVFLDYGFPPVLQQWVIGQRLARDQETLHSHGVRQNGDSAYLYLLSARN

IpaH1.4 LRR domain (from UniProt A0A0H2USG1 38-283) (domain or fragment)
Kd: 2300 nM
